This is an account of results in ChEMBL document CHEMBL1156055, “Synthetic substrate for application in both high and low throughput assays for botulinum neurotoxin B protease inhibitors” (Bioorg Med Chem Lett, 2009).

Substrate in the data set: COc1ccc2c(CC(=O)NCCCC[C@H](NC(=O)CNC(=O)[C@H](C)NC(=O)[C@H](CCC(N)=O)NC(=O)[C@H](CC(C)C)NC(=O)[C@H](C)NC(=O)[C@H](CC(=O)O)NC(=O)[C@H](C)NC(=O)[C@H](CCCNC(=N)N)NC(=O)[C@H](CC(=O)O)NC(=O)[C@H](CC(=O)O)NC(=O)[C@H](CC(C)C)NC(=O)[C@H](CCC(=O)O)NC(=O)[C@H](CO)NC(=O)[C@H](CC(C)C)NC(=O)[C@H](CCCCN)NC(=O)[C@H](CCC(N)=O)NC(=O)[C@H](CC(=O)O)NC(=O)[C@H](CCCNC(=N)N)NC(=O)[C@H](CCC(=O)O)NC(C)=O)C(=O)N[C@@H](CO)C(=O)N[C@@H](CCC(N)=O)C(=O)N[C@@H](CNc3ccc([N+](=O)[O-])cc3[N+](=O)[O-])C(=O)N[C@@H](CCC(=O)O)C(=O)N[C@@H](CO)C(=O)N[C@@H](CO)C(=O)N[C@@H](C)C(=O)N[C@@H](C)C(=O)N[C@@H](CCCCN)C(=O)N[C@@H](CC(C)C)C(=O)N[C@@H](CCCCN)C(=O)N[C@@H](CCCNC(=N)N)C(=O)N[C@@H](CCCCN)C(=O)N[C@@H](Cc3ccc(O)cc3)C(=O)N[C@@H](Cc3c[nH]c4ccccc34)C(=O)N[C@@H](Cc3c[nH]c4ccccc34)C(=O)N[C@@H](CCCCN)C(=O)N[C@@H](CC(N)=O)C(=O)N[C@@H](CC(C)C)C(=O)N[C@@H](CCCCN)C(N)=O)cc(=O)oc2c1
Put plainly: Activity at Clostridium botulinum BoNT/B protease.

B1: Botulinum neurotoxin type B (Clostridium botulinum), P10844 (protein)
chain: MPVTINNFNYNDPIDNNNIIMMEPPFARGTGRYYKAFKITDRIWIIPERYTFGYKPEDFNKSSGIFNRDVCEYYDPDYLNTNDKKNIFLQTMIKLFNRIKSKPLGEKLLEMIINGIPYLGDRRVPLEEFNTNIASVTVNKLISNPGEVERKKGIFANLIIFGPGPVLNENETIDIGIQNHFASREGFGGIMQMKFCPEYVSVFNNVQENKGASIFNRRGYFSDPALILMHELIHVLHGLYGIKVDDLPIVPNEKKFFMQSTDAIQAEELYTFGGQDPSIITPSTDKSIYDKVLQNFRGIVDRLNKVLVCISDPNININIYKNKFKDKYKFVEDSEGKYSIDVESFDKLYKSLMFGFTETNIAENYKIKTRASYFSDSLPPVKIKNLLDNEIYTIEEGFNISDKDMEKEYRGQNKAINKQAYEEISKEHLAVYKIQMCKSVKAPGICIDVDNEDLFFIADKNSFSDDLSKNERIEYNTQSNYIENDFPINELILDTDLISKIELPSENTESLTDFNVDVPVYEKQPAIKKIFTDENTIFQYLYSQTFPLDIRDISLTSSFDDALLFSNKVYSFFSMDYIKTANKVVEAGLFAGWVKQIVNDFVIEANKSNTMDKIADISLIVPYIGLALNVGNETAKGNFENAFEIAGASILLEFIPELLIPVVGAFLLESYIDNKNKIIKTIDNALTKRNEKWSDMYGLIVAQWLSTVNTQFYTIKEGMYKALNYQAQALEEIIKYRYNIYSEKEKSNINIDFNDINSKLNEGINQAIDNINNFINGCSVSYLMKKMIPLAVEKLLDFDNTLKKNLLNYIDENKLYLIGSAEYEKSKVNKYLKTIMPFDLSIYTNDTILIEMFNKYNSEILNNIILNLRYKDNNLIDLSGYGAKVEVYDGVELNDKNQFKLTSSANSKIRVTQNQNIIFNSVFLDFSVSFWIRIPKYKNDGIQNYIHNEYTIINCMKNNSGWKISIRGNRIIWTLIDINGKTKSVFFEYNIREDISEYINRWFFVTITNNLNNAKIYINGKLESNTDIKDIREVIANGEIIFKLDGDIDRTQFIWMKYFSIFNTELSQSNIEERYKIQSYSEYLKDFWGNPLMYNKEYYMFNAGNKNSYIKLKKDSPVGEILTRSKYNQNSKYINYRDLYIGEKFIIRRKSNSQSINDDIVRKEDYIYLDFFNLNQEWRVYTYKYFKKEEEKLFLAPISDSDEFYNTIQIKEYDEQPTYSCQLLFKKDEESTDEIGLIGIHRFYESGIVFEEYKDYFCISKWYLKEVKRKPYNLKLGCNWQFIPKDEGWTE
The term Km denotes the concentration of substrate that gives half-maximal velocity. As usually defined, the kcat is the maximal rate divided by the concentration of active sites. In the case of B1, the Km turned out to be 70.9 µM and the kcat is 3.81 s⁻¹.
